# B1: FOXJ1 (parent)
# chain: SAIYKWITDNFCYFRHADPTWQNS
# Variants of: B1
# Experiment: protein stability index of a GFP-peptide fusion (GPS, HEK-293T) (PSI 1-6); higher = more stable
# Conditions: c terminus: a fixed tail appended
# 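Further: lentivirally expressed fusions sorted by FACS into six bins by GFP to DsRed ratio, PSI derived from sequencing read proportions per bin multiplied by bin number.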
row,Variant,protein stability index
1,SAIYKWIQDNFCYFRHADPTWQNS [T8Q],2.78
2,SAIYKWIGDNFCYFRHADPTWQNS [T8G],2.05
3,SAIYKWISDNFCYFRHADPTWQNS [T8S],4.33
4,SAIYKWIEDNFCYFRHADPTWQNS [T8E],2.79
5,SAIYKWIVDNFCYFRHADPTWQNS [T8V],2.13
6,SAIYKWIHDNFCYFRHADPTWQNS [T8H],3.34
7,SAIYKWICDNFCYFRHADPTWQNS [T8C],2.73
8,SAIYKWIPDNFCYFRHADPTWQNS [T8P],1.86
9,SAIYKWINDNFCYFRHADPTWQNS [T8N],3.01
10,SAIYKWIIDNFCYFRHADPTWQNS [T8I],1.8
11,SAIYKWIADNFCYFRHADPTWQNS [T8A],3.42
12,SAIYKWIMDNFCYFRHADPTWQNS [T8M],3.27
13,SAIYKWIFDNFCYFRHADPTWQNS [T8F],3.33
14,SAIYKWIDDNFCYFRHADPTWQNS [T8D],3.49
15,SAIYKWIRDNFCYFRHADPTWQNS [T8R],2.51
16,SAIYKAITDNFCYFRHADPTWQNS [W6A],1.66
17,SAIYKRITDNFCYFRHADPTWQNS [W6R],1.86
18,SAIYKSITDNFCYFRHADPTWQNS [W6S],1.71
19,SAIYKVITDNFCYFRHADPTWQNS [W6V],1.49
20,SAIYKHITDNFCYFRHADPTWQNS [W6H],2.2
21,SAIYKEITDNFCYFRHADPTWQNS [W6E],2.27
22,SAIYKGITDNFCYFRHADPTWQNS [W6G],1.67
23,SAIYKFITDNFCYFRHADPTWQNS [W6F],2.43
24,SAIYKCITDNFCYFRHADPTWQNS [W6C],2.1

row,Variant,protein stability index
1,SAIYKYITDNFCYFRHADPTWQNS [W6Y],3.11
2,SAIYKTITDNFCYFRHADPTWQNS [W6T],1.43
3,SAIYKNITDNFCYFRHADPTWQNS [W6N],2.71
4,SAIYKIITDNFCYFRHADPTWQNS [W6I],3.22
5,SAIYKKITDNFCYFRHADPTWQNS [W6K],1.22
6,SAIYKQITDNFCYFRHADPTWQNS [W6Q],2.07
7,SAIYKPITDNFCYFRHADPTWQNS [W6P],2.13
8,SAIYKDITDNFCYFRHADPTWQNS [W6D],2.12
9,SAIYKMITDNFCYFRHADPTWQNS [W6M],3.3
10,SAIYKWITDNFNYFRHADPTWQNS [C12N],1.6
11,SAIYKWITDNFWYFRHADPTWQNS [C12W],3.99
12,SAIYKWITDNFDYFRHADPTWQNS [C12D],1.59
13,SAIYKWITDNFSYFRHADPTWQNS [C12S],2.78
14,SAIYKWITDNFEYFRHADPTWQNS [C12E],1.95
15,SAIYKWITDNFQYFRHADPTWQNS [C12Q],1.81
16,SAIYKWITDNFVYFRHADPTWQNS [C12V],2.69
17,SAIYKWITDNFHYFRHADPTWQNS [C12H],3.13
18,SAIYKWITDNFYYFRHADPTWQNS [C12Y],3.81
19,SAIYKWITDNFFYFRHADPTWQNS [C12F],2.67
20,SAIYKWITDNFLYFRHADPTWQNS [C12L],3.4
21,SAIYKWITDNFIYFRHADPTWQNS [C12I],2.77
22,SAIYKWITDNFGYFRHADPTWQNS [C12G],2.61
23,SAIYKWITDNFPYFRHADPTWQNS [C12P],1.97
24,SAIYKWITDNFTYFRHADPTWQNS [C12T],3.14

row,Variant,protein stability index
1,SAIYKWITDNFAYFRHADPTWQNS [C12A],2.57
2,SAIYKWITDNFKYFRHADPTWQNS [C12K],2.81
3,SAIYKWITDNFRYFRHADPTWQNS [C12R],1.81
4,SAIYKWKTDNFCYFRHADPTWQNS [I7K],1.74
5,SAIYKWQTDNFCYFRHADPTWQNS [I7Q],1.36
6,SAIYKWYTDNFCYFRHADPTWQNS [I7Y],1.86
7,SAIYKWDTDNFCYFRHADPTWQNS [I7D],2.27
8,SAIYKWETDNFCYFRHADPTWQNS [I7E],2.3
9,SAIYKWCTDNFCYFRHADPTWQNS [I7C],1.84
10,SAIYKWATDNFCYFRHADPTWQNS [I7A],2.02
11,SAIYKWPTDNFCYFRHADPTWQNS [I7P],2.1
12,SAIYKWHTDNFCYFRHADPTWQNS [I7H],1.6
13,SAIYKWSTDNFCYFRHADPTWQNS [I7S],2.81
14,SAIYKWWTDNFCYFRHADPTWQNS [I7W],3.71
15,SAIYKWNTDNFCYFRHADPTWQNS [I7N],1.93
16,SAIYKWFTDNFCYFRHADPTWQNS [I7F],2.87
17,SAIYKWMTDNFCYFRHADPTWQNS [I7M],3.88
18,SAIYKWRTDNFCYFRHADPTWQNS [I7R],1.79
19,SAIYKWLTDNFCYFRHADPTWQNS [I7L],2.9
20,SAIYKWVTDNFCYFRHADPTWQNS [I7V],2.81
21,SAIYKWGTDNFCYFRHADPTWQNS [I7G],2.4
22,SAIYKWTTDNFCYFRHADPTWQNS [I7T],1.66
23,SAIYGWITDNFCYFRHADPTWQNS [K5G],3.71
24,SAIYMWITDNFCYFRHADPTWQNS [K5M],3

row,Variant,protein stability index
1,SAIYYWITDNFCYFRHADPTWQNS [K5Y],3.64
2,SAIYCWITDNFCYFRHADPTWQNS [K5C],2.24
3,SAIYEWITDNFCYFRHADPTWQNS [K5E],1.81
4,SAIYQWITDNFCYFRHADPTWQNS [K5Q],2.99
5,SAIYAWITDNFCYFRHADPTWQNS [K5A],2.97
6,SAIYVWITDNFCYFRHADPTWQNS [K5V],3.36
7,SAIYNWITDNFCYFRHADPTWQNS [K5N],3.19
8,SAIYPWITDNFCYFRHADPTWQNS [K5P],1.26
9,SAIYTWITDNFCYFRHADPTWQNS [K5T],2.46
10,SAIYRWITDNFCYFRHADPTWQNS [K5R],3.05
11,SAIYFWITDNFCYFRHADPTWQNS [K5F],2.91
12,SAIYSWITDNFCYFRHADPTWQNS [K5S],3.33
13,SAIYIWITDNFCYFRHADPTWQNS [K5I],3.27
14,SAIYHWITDNFCYFRHADPTWQNS [K5H],3.79
15,SAIYLWITDNFCYFRHADPTWQNS [K5L],2.73
16,SAIYWWITDNFCYFRHADPTWQNS [K5W],2.78
17,SAIYDWITDNFCYFRHADPTWQNS [K5D],3.42
18,SAWYKWITDNFCYFRHADPTWQNS [I3W],2.41
19,SATYKWITDNFCYFRHADPTWQNS [I3T],1.7
20,SAPYKWITDNFCYFRHADPTWQNS [I3P],2.06
21,SAKYKWITDNFCYFRHADPTWQNS [I3K],1.84
22,SADYKWITDNFCYFRHADPTWQNS [I3D],2.83

# Reference: the supplement of paper PMC10567573
